# Results as given in patent CN115536746A (NANJING SANHOME PHARMACEUTICAL CO LTD, dated 2022).
# T1: cCRTAM-His (猴源CRTAM蛋白胞外区 + His标签) (猴源 (食蟹猴, cynomolgus monkey))
# T1 construct: also called cCRTAM-His蛋白; 食蟹猴CRTAM
# T1 chain: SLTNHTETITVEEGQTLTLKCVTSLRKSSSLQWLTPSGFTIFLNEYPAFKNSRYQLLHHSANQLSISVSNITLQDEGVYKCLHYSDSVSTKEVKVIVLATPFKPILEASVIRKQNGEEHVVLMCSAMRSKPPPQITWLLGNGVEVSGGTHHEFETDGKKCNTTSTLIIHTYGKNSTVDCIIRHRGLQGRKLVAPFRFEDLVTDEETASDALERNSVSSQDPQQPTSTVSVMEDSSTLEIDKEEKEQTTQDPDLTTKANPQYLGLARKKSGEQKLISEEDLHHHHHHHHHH
# B1: HuC124-42 (antibody, V domains shown)
# VH: QVQLVQSGAEVKKPGSSVKVSCKASGYSFSNYWIEWVRQAPGQGLEWIGEILPGVPTIYYNAKFKDRVTFTADKSTSTAYMELSSLRSEDTAVYYCSRDPWFAYWGQGTLVTVSA
# VL: EIVLTQSPATLSVSPGERATFSCRASQSIGTSLHWFQQKPGQAPRLLIKYASQSISGIPARFSGSGSGTEFTLTISSVQSEDFAVYYCQQSNNWPFTFGGGTKLEIK
# notes: also called HuC124-42-biotin; 抗CRTAM人源化抗体HuC124-42
# B2: HuC94-31 (antibody, V domains shown)
# VH: EVQLLESGGGLVQPGGSLRLSCAASGFTFSTSAMSWVRQAPGKGLEWVATISSGGDYTYYSDNVKGRFTISRDNSKSTLYLQMNSLRAEDTAVYYCTLGYDEADYWGQGSLLTVSS
# VL: DIQMTQSPSSLSASVGDRVTITCRASQDISNYLNWYQQKPGKAPKLLIYYTSRLHSGVPSRFSGSGSGTDYTFTISSLQPEDIATYYCQQGDTFPWTFGGGTKLEIK
# notes: also called HuC94-31-biotin; 抗CRTAM人源化抗体HuC94-31
# B3: HuC110-34 (antibody, V domains shown)
# VH: QVQLVQSGAEVKKPGASVKVSCKASGYTFTNNDINWVKQAPGQRLEWIGWIYPRDGSTQYNEKFRGRATITVDTSASTAYMELSSLRSEDTAVYFCARGLVDYWGQGTLVTVSS
# VL: DVVMTQSPDSLAVSLGERATINCRSSQSLVHSNKNTYLHWYLQKPGQPPKLLIYKVSNRFSGVPDRFSGSGSGTDFTLTISSLQAEDVAVYYCSQSTRVPWTFGGGTKLEIK
# notes: also called HuC110-34-biotin; 抗CRTAM人源化抗体HuC110-34
# Target: T1, cCRTAM-His (猴源CRTAM蛋白胞外区 + His标签)
# Test: ELISA, cCRTAM-His coated at 2 μg/mL
row,Binder,EC50 [ng/mL]
1,B1,4.78
2,B2,4.68
3,B3,8.17
